Common to all, as to experiment: FP; fluorescence anisotropy; Zn2+, 25 C
Common to all, as to conditions: tags: N-terminal MBP; C-terminal GS linker + syntrophin ligand S5 (VKESLV)
On the technique in general: Fluorescence polarisation rises when a labelled molecule tumbles more slowly, as on binding a larger partner.

The target of series [1] is T1, 42-10 (ZF2) high affinity synTF (artificial).
T1 chain: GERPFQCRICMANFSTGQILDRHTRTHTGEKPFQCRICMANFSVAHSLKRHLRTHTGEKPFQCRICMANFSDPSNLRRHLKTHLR
On the procedure:
(§1) All assays were conducted in 20 mM Tris, pH 7.5, 100 mM […], 50 μM ZnCl2 buffer at 25° C. Proteins, probes, and competitor oligos were added to a final volume of 300 μL. Probes were used at 10 nM in all experiments. For complex assembly experiments (FIG. 1C), indicated concentrations of MBP-ZF₄₃₋₈ harboring a VSKESLV* ligand (SEQ ID NO: 120) (see e.g., FIG. 5A-FIG. 5B, FIG. 7A-FIG. 7B) were titrated against 5 μM concentrations of clamp. Mixtures were allowed to equilibrate at 25° C. for 10 min in Costar black 96-well plates prior to reading. Fluorescence anisotropy (FA) measurements were made at 494 nm using a SpectraMax M5 (Molecular Devices) fluorescence plate reader. For all measurements, anisotropy (r) was calculated using the following equation, wherein I_{∥} and I_{⊥} are parallel and perpendicular fluorescence, respectively:
(§2) TF-DBM binding constants were measured in vitro by fluorescence anisotropy (FA). Recombinant proteins were purified and DBM oligos prepared as described herein. […] Affinities for the interaction were measured as a function of the increase in fluorescence anisotropy resulting from binding of the fusion to a fluorescently labeled (FITC) oligo probe (data not shown). Oligo probe binding to ZF affinity variants was measured. MBP-ZF was titrated against 10 nM oligo probe. […] Kd values were extracted by fitting data to a quadratic binding equation (data not shown). Competition binding experiments were performed to measure binding constants for DBM affinity variants. […] Competitor oligo Kₐ values were extracted by fitting data (converted to fraction probe bound) to a cubic equation describing competitive binding (see e.g., FIG. 6). Sequences for both sets of DBM affinity variants are listed on the right of FIG. 6.

The target of series [2] is T2, 42-10 (ZF2) low affinity synTF (artificial, R-to-A backbone (low affinity allele, already in ref)).
T2 chain: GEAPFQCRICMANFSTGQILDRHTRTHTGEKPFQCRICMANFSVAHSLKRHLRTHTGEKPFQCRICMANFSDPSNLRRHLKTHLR
How it is done: as §1, §2

Series [3] concerns the target T3, 43-8 (ZF1) high affinity synTF (artificial).
T3 chain: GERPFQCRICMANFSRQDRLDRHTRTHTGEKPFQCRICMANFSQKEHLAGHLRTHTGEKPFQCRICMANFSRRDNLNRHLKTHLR
How it is done: as §1, §2

Series [4] deals with T4, 43-8 (ZF1) low affinity synTF (artificial, R-to-A backbone (low affinity allele, already in ref)).
T4 chain: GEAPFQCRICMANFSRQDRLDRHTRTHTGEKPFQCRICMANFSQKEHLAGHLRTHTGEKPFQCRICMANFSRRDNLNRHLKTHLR
How it is done: as §1, §2

B1: 42-10 DBM1 (dsDNA)
DNA 1: AGACGCTGCTC
DNA 2: GAGCAGCGTCT
As for B1, the Kd (usually the equilibrium constant for the complex coming apart) in series [1] is 2.4 nM; in series [2], 15 nM.

B2: 43-8 DBM1 (dsDNA)
DNA 1: AGAGTGAGGAC
DNA 2: GTCCTCACTCT
On to B2, for which the Kd in series [3] was determined as 6.5 nM; in series [4], 13.6 nM.

The values above are taken from patent US20200002710A1, “SYSTEMS AND METHODS FOR CONTROL OF GENE EXPRESSION” (TRUSTEES OF BOSTON UNIVERSITY, published 2020).
